# Reference: patent publication US9307782B2, “Mannanase produced from Cellulosimicrobium sp. strain HY-13” (Korea Research Institute of Bioscience and Biotechnology, priority 2011, dated 2016)
# Where two headings read alike, the source gives them in different places. Marks after values point to notes of the source that are not given here.
# B1: Mannanase: Wild type β-1,4-mannanase of Bacillus subtilis WY34 (protein)
# chain: MRRLFAIVLGAVLALLAVPALAQGASVASDGFSVQDGRIYDANGNRFVPVGVNHAHAWYPSQTQSFADIRAAGANTVRVVLSGGRYGTSSAADVSAVVERCKQNQLVCILENHDTTGYGEDGSARSLASAAQYWTSIASVLRGQERYVMINIGNEPFGNSGFQSWTTDTIAAIRTLRAAGLDHTLVVDAPNWGQDWSFTMRDNAPTVAAADGNVVFSVHMYGVFDTGAEVRAYLDSFTSRGLPIMVGEFGDNHSDGNPDEATIMSYTRSQGIGMLGWSWSGNGGGVEYLDMVNGFSASSLTPWGQRFVHGADGLRARNAPAASVYGGDGGDGDGGAGTAPNGYPYCASASSDPDGDGWGWESSASCVVRGSSADTGSGGGSGSGSTAPNGYPYCASASSDPDGDGWGWESSASCVVRGSSADR
# modifications: cellulosimicrobium
# notes: Wild type β-1,4-mannanase of Bacillus subtilis WY34
# Experiments:
# [1] = format: physicochemical
# Experimental: To determine the optimum reaction temperature of the mannanase, mannanase activity was measured at different temperatures of 37, 40, 45, 50, 55, 60, 65, and 70° C. To measure thermo-stability, the mannanase was heat-treated at the said temperatures for 15, 30, and 60 minutes and then the remained activity was measured. To determine the optimum reaction pH, the mannanase was treated respectively with 50 mM of sodium citrate buffer (pH 4.0˜5.5), phosphate buffer (pH 5.5˜7.5), Tris-HCl buffer (pH 7.5˜9.0), and glycine-NaOH buffer (pH 9.0˜10.0) in pH range of 4.0˜10.0 at 55° C. for 15 minutes, followed by measurement of enzyme reaction.
# [2] = Specific activity of mannanase (DNS reducing sugar assay); format: biochemical; conditions: for Specific activity: pH 6.0, 50° C., 15 minutes
# Experimental: To compare the mannanase activity to different matrixes, locust bean gum, ivory nut mannan and guar gum were used as matrixes and the activity of the purified mannanase to those matrixes were investigated.
# (§1) The activity of β-1,4-mannanase was investigated by measuring the reduced amount of glucose isolated from locust bean gum using 3,5-dinitrosalicylic acid (DNS). At this time, D-mannose was used as a standard material. 0.5 Ml of a standard mixture composed of 0.5% locust bean gum was mixed with 0.05 Ml of an enzyme aqueous solution, followed by inducing biodegradation reaction in 50 mM sodium phosphate buffer (pH 6.0) at 50° C. for 15 minutes. The activity of the recombinated mannanase (1 IU) to the mannan substrate was defined as the amount of the protein necessary for the secretion of 1 μmol reducing sugar under the standard analysis condition. Chromogenic PNP-sugar derivative was used to measure another degrading activity of the said recombinated enzyme. The enzyme activity of the recombinated mannanase to the chromogenic substrate was measured under the same conditions as set for the analysis of β-1,4-mannanase activity. The activity of the recombinated mannanase (1 IU) to the PNP-sugar derivative was defined as the amount of the protein necessary for the production of 1 μmol PNP under the standard analysis condition.
# [3] = Specific activity of mannanase (substrate specificity); format: biochemical; conditions: substrate Birchwood xylan
# Source text: as §1, with “0.5 Ml of a standard mixture composed of 0.5% locust bean gum was mixed with 0.05 Ml of an enzyme aqueous solution, followed by inducing biodegradation reaction in 50 mM sodium phosphate buffer (pH 6.0) at 50° C. for 15 minutes.” left out, “Chromogenic PNP-sugar derivative was used to measure another degrading activity of the said recombinated enzyme.” left out
# [4] = as above; format: biochemical
# Experimental: as §1
# [5] = Analysis of degradation product (HPLC, LC-MS/MS); format: biochemical
# Experimental: (§2) Mannooligomer (M2˜M5, 1 mg/100 μl each) and locust bean gum (1.4 mg/100 μl) were reacted in 50 mM sodium phosphate buffer (pH 6.0) containing 1 μg of the recombinant mannanase at 30° C. for 12 hours, followed by investigation of the hydrolysate. HPLC (high performance liquid chromatography) was performed by using Finnigan Surveyor™ Modular HPLC systems (Thermo Electron Co.) equipped with Asahipak NH2P-50 2D column (5 μm, 2.0×150 mm, Shodex) ran by Xcalibur software (version 1.3 SP2, Thermo Electron Co.). Elution buffer A (0.05% pomalus acid/sterilized water) and elution buffer B (acetonitrile and methanol (7:3) containing 0.05% pomalus acid) were used as moving phases. LC-MS/MS (liquid chromatography/tandem mass spectrometry) was performed by using Finnigan LCQ Advantage MAX ion trap mass spectrometer (Thermo Electron Co.).
# [6] = Analysis of degradation product (HPLC, LC-MS/MS); format: biochemical; conditions: substrate Ivory nut mannan; LC area %
# Experimental: as §2, with “Mannooligomer (M2˜M5, 1 mg/100 μl each) and locust bean gum (1.4 mg/100 μl) were reacted in 50 mM sodium phosphate buffer (pH 6.0) containing 1 μg of the recombinant mannanase at 30° C. for 12 hours, followed by investigation of the hydrolysate.” left out
# [7] = Binding of mannanase to insoluble polymer; conditions: enzyme 5.0 IU/Ml, on ice two hours, pH 6.0
# Experimental: The mannanase of the present invention contains two family 10 CBMs at C-terminal, which plays an important role in enzyme-substrate interaction. As the mannanase was expected to bind to various carbohydrate polymers, hydrophobic materials having microstructures including polysaccharide, poly(3HB) granules, and lignin were used as substrates to investigate enzyme-substrate binding activity of the mannanase.
# Before analyzing the binding activity, insoluble substrates were washed with 50 mM sodium phosphate buffer (pH 6.0) 5 times, followed by measuring the binding capacity of the enzyme to the hydrophobic materials. Particularly, the enzyme diluted at the concentration of 5.0 IU/Ml was put on ice for two hours with the equal volume of a substrate polymer. The mixture was stirred every 5 minute. The mixture was centrifuged at 12,000×g to obtain supernatant. Then, the activity of β-1,4-mannanase thereof was measured.
# [8] = toward locust bean gum; comparison enzymes of other strains; cited from earlier work
# [9] = substrate Locust bean gum, 1 μg recombinant mannanase, pH 6.0, 30° C., 12 hours, LC area %
molecule,measurement,setting,value
B1,Half life of the enzyme,[1],15 min
same,Thermolability,[1]; exposed on the temperature of 55° C.,rapidly increased
same,specific activity to ivory nut mannan relative to guar gum,[2]; ratio ivory nut mannan / guar gum,15.2 fold
same,specific activity to ivory nut mannan relative to locust bean gum,[2]; ratio ivory nut mannan / locust bean gum,1.7 fold
same,Specific activity,[2]; toward guar gum,967 IU/mg
same,Specific activity,[2]; toward insoluble ivory nut mannan,"14,711 IU/mg"
same,Specific activity,[2]; toward locust bean gum,"8,498 IU/mg"
same,degradation of carbohydrate,[3],not degraded
same,degradation of carbohydrate,[4]; substrate carboxymethylcellulose,not degraded
same,degradation of carbohydrate,[4]; substrate pectin,not degraded
same,degradation of carbohydrate,[4]; substrate soluble starch,not degraded
same,Composition (%) of products formed by hydrolysis reaction: M1,[5]; [9],1.1%
same,Composition (%) of products formed by hydrolysis reaction: M2,[5]; [9],6.4%
same,Composition (%) of products formed by hydrolysis reaction: M3,[5]; [9],1.5%
same,Composition (%) of products formed by hydrolysis reaction: M4,[5]; [9],7.4%
same,Composition (%) of products formed by hydrolysis reaction: M5,[5]; [9],44.2%
same,degradation of substrate,[5]; substrate M2 (printed N2),not degraded
same,hydrolysis products: mannooligomer (at least M6),"[5]; substrate locust bean gum, sum of M6 and larger",39.4%
same,Composition (%) of products formed by hydrolysis reaction: M4,[6],25.2%
same,binding to insoluble polymer,[7]; Avicel,strongly conjugated
same,binding to insoluble polymer,[7]; chitin,strongly conjugated
same,binding to insoluble polymer,[7]; chitosan,strongly conjugated
same,binding to insoluble polymer,[7]; curdlan,not conjugated
same,binding to insoluble polymer,[7]; insoluble ivory nut mannan,strongly conjugated
same,binding to insoluble polymer,[7]; insoluble oat spelt xylan,not conjugated
same,binding to insoluble polymer,[7]; lignin,not conjugated
same,binding to insoluble polymer,[7]; poly(3HB) granules,not conjugated
same,Specific activity,[8],"8,302^d IU/mg"
